Data reported in the supplement of paper PMC7125110.
± gives the standard error. This sample holds only a part of the variants without activity.

B1: glmS ribozyme (parent)
chain: AUAAAAGCGCCAGAACUACAGAAAUGUAGUUGACGAGGAGGAGGUUUAUCGAAUUUUCGGCGGAUGCCUCCAAA

Columns and labels:
Conditions in all cases: with glucosamine-6-phosphate
glucosamine-6-phosphate [1] = variants of: B1; assay: self-cleavage kobs at 40 uM GlcN6P; higher = faster cleavage; RNA array
How it was run: (§1)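 kcat and KM were obtained from weighted Michaelis–Menten fits across concentrations of kobs values. Those came from one- or two-exponential decay fits to per-tile medians normalised to baseline and to non-cleaving reference variants. The variants were barcoded ribozymes transcribed in situ by E. coli RNA polymerase on sequenced MiSeq chips and tracked through a hybridised Cy3 probe at 37 °C, with 40 μM to 10 mM glucosamine-6-phosphate in HEPES/KCl/Mg(OAc)2 buffer flowed in.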

glucosamine-6-phosphate [2] = variants of: B1; assay: self-cleavage kobs at 160 uM GlcN6P; higher = faster cleavage; RNA array
How it was run: as §1

glucosamine-6-phosphate [3] = variants of: B1; assay: self-cleavage kobs at 640 uM GlcN6P; higher = faster cleavage; RNA array
How it was run: as §1

glucosamine-6-phosphate [4] = variants of: B1; assay: self-cleavage kobs at 2500 uM GlcN6P; higher = faster cleavage; RNA array
How it was run: as §1

glucosamine-6-phosphate [5] = variants of: B1; assay: self-cleavage kobs at 10000 uM GlcN6P; higher = faster cleavage; RNA array
How it was run: as §1

| Variant | self-cleavage kobs at 40 uM GlcN6P (glucosamine-6-phosphate [1]) [s⁻¹] | self-cleavage kobs at 160 uM GlcN6P (glucosamine-6-phosphate [2]) [s⁻¹] | self-cleavage kobs at 640 uM GlcN6P (glucosamine-6-phosphate [3]) [s⁻¹] | self-cleavage kobs at 2500 uM GlcN6P (glucosamine-6-phosphate [4]) [s⁻¹] | self-cleavage kobs at 10000 uM GlcN6P (glucosamine-6-phosphate [5]) [s⁻¹] |
| --- | --- | --- | --- | --- | --- |
| U55C G62A | < 1e-05 | < 1e-05 | < 1e-05 | < 1e-05 | < 1e-05 |
| G7U C10G A12U U65G C68G | 7.58e-05 ± 2.2e-05 | – | – | – | 5.57e-05 ± 1.5e-05 |
| A42G G60A U65G | < 1e-05 | – | – | < 1e-05 | – |
| C16U G29C G37A G44A | < 1e-05 | – | – | – | – |
| G13U A36U C50U C70U | 7.67e-05 ± 2.7e-05 | – | – | – | – |
| C34A A52G | < 1e-05 | < 1e-05 | < 1e-05 | < 1e-05 | < 1e-05 |
| G40C U49C | < 1e-05 | – | < 1e-05 | < 1e-05 | < 1e-05 |
| U31A U49A C61U C70G | < 1e-05 | – | – | – | – |
| A52C G62C | < 1e-05 | < 1e-05 | < 1e-05 | < 1e-05 | < 1e-05 |
| G7U U54C | < 1e-05 | < 1e-05 | < 1e-05 | – | < 1e-05 |
| A14C A36G C71U | < 1e-05 | – | – | – | – |
| G9A G29A U31A G35U A36C C70U | < 1e-05 | – | – | – | < 1e-05 |
| G7U G9C G35C A36U U49A U56A | < 1e-05 | – | – | – | – |
| G32A C50G G51A | < 1e-05 | – | – | – | – |
| A6G G13C | < 1e-05 | < 1e-05 | < 1e-05 | < 1e-05 | < 1e-05 |
| C10G G63C | < 1e-05 | < 1e-05 | < 1e-05 | < 1e-05 | – |
| G7U A33C | < 1e-05 | < 1e-05 | < 1e-05 | < 1e-05 | < 1e-05 |
| A15C U55A C61G | < 1e-05 | – | – | – | < 1e-05 |
| G35U A39G | < 1e-05 | < 1e-05 | < 1e-05 | < 1e-05 | < 1e-05 |
| A12C A33C C71G | < 1e-05 | – | – | – | < 1e-05 |
| G38U U46G | < 1e-05 | < 1e-05 | – | < 1e-05 | – |
| G13U G37A | < 1e-05 | < 1e-05 | – | – | 6.96e-05 ± 8.5e-06 |
| C11A A14G G29A G35A A53G | < 1e-05 | – | – | – | – |
| G7U G37C A39C G62C | < 1e-05 | – | – | – | – |
| C16G A42U | < 1e-05 | < 1e-05 | – | – | – |
| G38C G40C A64U | < 1e-05 | – | – | – | < 1e-05 |
| G7U G63A | < 1e-05 | – | – | – | < 1e-05 |

| Variant | self-cleavage kobs at 40 uM GlcN6P (glucosamine-6-phosphate [1]) [s⁻¹] | self-cleavage kobs at 160 uM GlcN6P (glucosamine-6-phosphate [2]) [s⁻¹] | self-cleavage kobs at 640 uM GlcN6P (glucosamine-6-phosphate [3]) [s⁻¹] | self-cleavage kobs at 2500 uM GlcN6P (glucosamine-6-phosphate [4]) [s⁻¹] | self-cleavage kobs at 10000 uM GlcN6P (glucosamine-6-phosphate [5]) [s⁻¹] |
| --- | --- | --- | --- | --- | --- |
| G13C G40U A53U G59U | < 1e-05 | – | – | – | < 1e-05 |
| G59A C68U U69G | < 1e-05 | – | – | – | – |
| A12C A14C G60A A64C | < 1e-05 | – | – | – | – |
| G9U A14G G59C C68U | < 1e-05 | – | – | – | < 1e-05 |
| G35U A64C C68A | < 1e-05 | – | – | – | – |
| C58A G62C | < 1e-05 | < 1e-05 | < 1e-05 | < 1e-05 | – |
| G9U G37A | < 1e-05 | < 1e-05 | – | < 1e-05 | – |
| G44C U55G C70U | < 1e-05 | – | < 1e-05 | – | – |
| A42U U69A | 0.00293 ± 0.00038 | 0.00511 ± 0.0011 | 0.0164 ± 0.0051 | 0.0275 ± 0.012 | 0.101 ± 0.036 |
| C16U U31C G35A G41A G62U | < 1e-05 | – | < 1e-05 | – | – |
| A12C C58U G63U | < 1e-05 | – | – | – | < 1e-05 |
| G13U C16G U31G C34U | < 1e-05 | – | – | – | – |
| A15G U30G C70U | 0.000184 ± 5.6e-05 | – | 0.00102 ± 0.00026 | – | 0.0318 ± 0.013 |
| C8G G38U G60U | < 1e-05 | – | – | – | – |
| A14C A36C G63A U65C | < 1e-05 | < 1e-05 | – | – | < 1e-05 |
| C8U A15G C34U G35U A36U C68A | < 1e-05 | < 1e-05 | < 1e-05 | – | – |
| A39U G66U C67U | 3.54e-05 ± 1.2e-05 | – | – | – | – |
| A6U A12U G43A U47G | < 1e-05 | – | – | – | – |
| A12C G35U | < 1e-05 | < 1e-05 | < 1e-05 | < 1e-05 | < 1e-05 |
| A48C U49G G62A | < 1e-05 | – | – | – | – |
| G35C C58A | < 1e-05 | – | < 1e-05 | – | < 1e-05 |
| G35U G40U | < 1e-05 | < 1e-05 | < 1e-05 | < 1e-05 | < 1e-05 |
| U30C U69G | 3.65e-05 ± 1.2e-05 | 7.31e-05 ± 1.5e-05 | 0.000119 ± 2.8e-05 | 5.46e-05 ± 1.1e-05 | 2.39e-05 ± 1.1e-05 |
| G29U U31A A42U | < 1e-05 | – | – | – | – |
| A15U A36U G60A | < 1e-05 | – | – | – | – |
| A15C U30A G41C U45A C58U | < 1e-05 | – | – | – | – |
